The source of these data is doi:10.1101/2024.10.15.618391.

Assay in all cases: BLI
(In general: Biolayer interferometry detects binding as a change in optical thickness at a sensor tip.)

For test [1], the target named is His6-SeSepF (Spiroplasma eriocheiris SepF) (Spiroplasma eriocheiris).
Test [2] has the same target. This is another data set of the same source.
The target is the same in test [3]. This is another data set of the same source.

Several values for one entry are separate records, joined by “and”; a condition that tells them apart may be missing. Equal entries are not always repeated. Where two headings read alike, the source gives them in different places.

Consider “SeFtsZ L272E mutant (from UniProt A0A0H3XMR3 1-411) (natural protein)”, for which the Kd – broadly, a measure of binding affinity in units of concentration – in test [1] was 980 nM and 700 nM.
Consider “Spiroplasma eriocheiris FtsZ, His-tag removed (from UniProt A0A0H3XMR3 1-411) (natural protein)”, for which the Kd in test [2] is 1040 nM; in test [3], 53900 nM; in test [1] it was 1130 nM.
